From patent publication US20240043552A1 (Eli Lilly, published 2024)
Positions count from the first letter of the chain named. Names and notes keep the numbering of the source. Blank lines part the entries; values can stand above or below the binder they belong to.

Columns and labels:
Experiment in all cases: sandwich ELISA with mis-matched antigens
hHER-2-Fc = target: T1, hHER-2-Fc (human, UniProt P04626 23-652)
T1 construct: Bought (R&D systems); Coated on the plate; not shown: Fc of the bought fusion protein
Protocol: (§1) The dual-binding activity of the same synthesized IgG BsAbs is assessed using a sandwich ELISA. […] Sandwich ELISAs are developed for detecting the four different BsAb test articles; one for detecting anti-HER-2/anti-EGFR BsAb activity, one for detecting anti-HER-2/anti-LTPR BsAb activity, one for detecting anti-cMET/anti-EGFR BsAb activity and one for detecting anti-cMET/anti-LTPR BsAb activity. For all ELISAs, clear 96-well round bottom high binding Immulon microtiter plates (Greiner bio-one, cat #650061) are coated overnight at 2-8° C. with 50 μL/well 1 μg/mL hHER-2-Fc or 1 μg/mL hHGFR(cMet)-Fc (both from R&D systems) in a 50 mM Na2CO3 pH 8.3 buffer. The plates are washed 4 times with PBST and blocked with 200 μL/well casein buffer (Pierce) for 1 hr at room temperature. The plates are then washed 4 times with PBST and the parental IgG controls or BsAb IgG test articles are added at 50 μL/well and […] and serially diluted 1:3 down the plate. The controls and test articles are incubated on the plate for 1 hr at room temperature. The plates are then washed 4 times with PBST and 50 μL/well 1 μg/mL hEGFR-Fc-biotin or hLTβR-Fc-biotin (both from R&D systems) is added for 1 hr at room temperature. The plates are then washed 4 times with PBST followed by the addition of a 50 μL/well streptavidin-AP (Jackson Immunoresearch Labs Cat. #016-050-084) diluted 1:1000 in casein buffer. The streptavidin-AP is incubated in each well for 1 hr at room temperature. The plates are then washed 4 times with PBST and 100 μL/well 1-step PNPP substrate is added (Thermo Scientific Cat. #37621). After approximately 5-15 minutes, plates are read for Absorbance (405 nm) using a SPECTRAMAX® UV plate reader (Molecular Devices). Biotin-labeling of the hEGFR-Fc and hLTβR-Fc proteins is performed using EZ-LINK™ Sulfo-NHS-LC-Biotin (Thermo Scientific Cat. #21327) according to the manufacturer's protocol.

hLTβR-Fc-biotin = target: T2, hLTβR-Fc-biotin (human, UniProt P36941 28-227, limits assumed, biotin-labelled with EZ-LINK Sulfo-NHS-LC-Biotin)
T2 construct: Bought (R&D systems); Detection antigen of the sandwich; also called LTPR (as printed once); not shown: Fc of the bought fusion protein
T2 sequence (P36941 28-227 limits assumed): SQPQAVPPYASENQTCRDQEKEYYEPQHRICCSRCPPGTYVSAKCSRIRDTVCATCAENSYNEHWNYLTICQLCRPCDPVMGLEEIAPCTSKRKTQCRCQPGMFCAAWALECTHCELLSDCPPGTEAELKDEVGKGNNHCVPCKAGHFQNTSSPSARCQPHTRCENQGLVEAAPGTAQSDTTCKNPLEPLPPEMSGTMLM
Protocol: as §1

hEGFR-Fc-biotin = target: T3, hEGFR-Fc-biotin (human, UniProt P00533 25-645, biotin-labelled with EZ-LINK Sulfo-NHS-LC-Biotin)
T3 construct: Bought (R&D systems); Detection antigen of the sandwich; not shown: Fc of the bought fusion protein
Protocol: as §1

hHGFR(cMet)-Fc = target: T4, hHGFR(cMet)-Fc (human, UniProt P08581 25-932)
T4 construct: Bought (R&D systems); Coated on the plate; not shown: Fc of the bought fusion protein
T4 sequence (P08581 25-932): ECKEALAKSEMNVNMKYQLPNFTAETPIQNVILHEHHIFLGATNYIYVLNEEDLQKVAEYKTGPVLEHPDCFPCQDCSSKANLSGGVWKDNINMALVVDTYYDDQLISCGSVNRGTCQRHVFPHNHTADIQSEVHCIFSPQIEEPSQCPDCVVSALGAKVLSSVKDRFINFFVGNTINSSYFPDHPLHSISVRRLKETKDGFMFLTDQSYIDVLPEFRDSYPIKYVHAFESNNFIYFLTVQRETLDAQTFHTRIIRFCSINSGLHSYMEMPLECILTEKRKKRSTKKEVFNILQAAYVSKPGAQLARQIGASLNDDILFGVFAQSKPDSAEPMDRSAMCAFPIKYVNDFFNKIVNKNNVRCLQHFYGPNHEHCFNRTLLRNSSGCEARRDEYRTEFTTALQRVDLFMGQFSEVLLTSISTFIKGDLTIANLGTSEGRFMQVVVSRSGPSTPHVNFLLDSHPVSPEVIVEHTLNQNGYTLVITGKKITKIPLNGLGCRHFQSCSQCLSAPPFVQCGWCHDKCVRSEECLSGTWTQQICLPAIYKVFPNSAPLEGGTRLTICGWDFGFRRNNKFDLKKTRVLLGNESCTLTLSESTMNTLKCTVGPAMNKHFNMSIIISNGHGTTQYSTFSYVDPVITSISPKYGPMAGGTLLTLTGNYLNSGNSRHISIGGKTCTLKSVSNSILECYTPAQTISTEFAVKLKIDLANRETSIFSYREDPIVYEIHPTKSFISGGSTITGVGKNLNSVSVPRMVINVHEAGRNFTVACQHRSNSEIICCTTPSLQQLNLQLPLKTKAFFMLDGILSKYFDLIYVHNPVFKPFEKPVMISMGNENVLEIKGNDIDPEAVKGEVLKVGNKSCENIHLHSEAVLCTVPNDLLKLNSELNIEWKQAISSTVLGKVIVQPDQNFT
Protocol: as §1

binding result (hHER-2-Fc): no binding | binding result (hLTβR-Fc-biotin): no binding
B1: MetMAb × Matuzumab IgG BsAb, CH1/Cκ Wild-Type (AB / H4DR variable domain designs, 7.8.60 CH3, N297Q) (bispecific antibody)
heavy 1: EVQLVESGGGLVQPGGSLRLSCAASGYTFTSYWLHWVRKAPGKGLEWVGMIDPSNSDTRFNPEFKDRFTISADTSKNTAYLQMNSLRAEDTAVYYCATYRSYVTPLDYWGQGTLVTVSSASTKGPSVFPLAPSSKSTSGGTAALGCLVKDYFPEPVTVSWNSGALTSGVHTFPAVLQSSGLYSLSSVVTVPSSSLGTQTYICNVNHKPSNTKVDKKVEPKSCDKTHTCPPCPAPELLGGPSVFLFPPKPKDTLMISRTPEVTCVVVDVSHEDPEVKFNWYVDGVEVHNAKTKPREEQYQSTYRVVSVLTVLHQDWLNGKEYKCKVSNKALPAPIEKTISKAKGQPREPQVYTLPPSREEMTDNQVSLTCLVKGFYPSDIAVEWESNGQPENNYKTTPPVLMSDGSFFLASKLTVDKSRWQQGNVFSCSVMHEALHNHYTQKSLSLSPG
light 1: RIQMTQSPSSLSASVGDRVTITCKSSQSLLYTSSQKNYLAWYQDKPGKAPKLLIYWASTRESGVPSRFSGSGSGTDFTLTISSLQPEDFATYYCQQYYAYPWTFGQGTKVEIKRTVAAPSVFIFPPSDEQLKSGTASVVCLLNNFYPREAKVQWKVDNALQSGNSQESVTEQDSKDSTYSLSSTLTLSKADYEKHKVYACEVTHQGLSSPVTKSFNRGEC
heavy 2: QVQLVQSGAEVKKPGASVKVSCKASGYTFTSHWMHWVRYAPGQGLEWIGEFNPSNGRTNYNEKFKSKATMTVDTSTNTAYMELSSLRSEDTAVYYCASRDYDYDGRYFDYWGRGTLVTVSSASTKGPSVFPLAPSSKSTSGGTAALGCLVKDYFPEPVTVSWNSGALTSGVHTFPAVLQSSGLYSLSSVVTVPSSSLGTQTYICNVNHKPSNTKVDKKVEPKSCDKTHTCPPCPAPELLGGPSVFLFPPKPKDTLMISRTPEVTCVVVDVSHEDPEVKFNWYVDGVEVHNAKTKPREEQYQSTYRVVSVLTVLHQDWLNGKEYKCKVSNKALPAPIEKTISKAKGQPRRPRVYTLPPSREEMTKNQVSLVCLVKGFYPSDIAVEWESNGQPENNYKTTPPVLDSDGSFFLYSVLTVDKSRWQQGNVFSCSVMHEALHNHYTQKSLSLSPG
light 2: DIQMTQSPSSLSASVGDRVTITCSASSSVTYMYWYQRKPGDAPKLLIYDTSNLASGVPSRFSGSGSGTDYTFTISSLQPEDIATYYCQQWSSHIFTFGQGTKVEIKRTVAAPSVFIFPPSDEQLKSGTASVVCLLNNFYPREAKVQWKVDNALQSGNSQESVTEQDSKDSTYSLSSTLTLSKADYEKHKVYACEVTHQGLSSPVTKSFNRGEC
notes: Human IgG1; also called MetMAb × Matuzumab Wild-Type

binding result (hHER-2-Fc): no binding | binding result (hLTβR-Fc-biotin): no binding
B2: MetMAb × Matuzumab IgG BsAb, CH1/Cκ design 14.1.2 (bispecific antibody)
heavy 1: B1 heavy 1 with K149A, K215E
light 1: B1 light 1 with E129K, S137R
heavy 2: B1 heavy 2
light 2: B1 light 2
notes: Human IgG1; also called MetMAb × Matuzumab 14.1.2

binding result (hHER-2-Fc): no binding | binding result (hLTβR-Fc-biotin): no binding
B3: MetMAb × Matuzumab IgG BsAb, CH1/Cκ design 14.3.1.1 (bispecific antibody)
heavy 1: B1 heavy 1 with K149A, S185A
light 1: B1 light 1 with S137R, S182I
heavy 2: B1 heavy 2 with K217E
light 2: B1 light 2 with E122K
notes: Human IgG1; also called MetMAb × Matuzumab 14.3.1.1

binding result (hHER-2-Fc): no binding | binding result (hLTβR-Fc-biotin): no binding
B4: MetMAb × Matuzumab IgG BsAb, CH1/Cκ design 14.3.1.2 (bispecific antibody)
heavy 1: B1 heavy 1 with K149A, S185G
light 1: B1 light 1 with S137R, S182I
heavy 2: B1 heavy 2 with K217E
light 2: B1 light 2 with E122K
notes: Human IgG1; also called MetMAb × Matuzumab 14.3.1.2

binding result (hEGFR-Fc-biotin): no binding | binding result (hHGFR(cMet)-Fc): no binding
B5: Pertuzumab × BHA10 IgG BsAb, CH1/Cκ design 14.3.1.1 (bispecific antibody)
heavy 1: EVQLVESGGGLVQPGGSLRLSCAASGFTFTDYTMDWVRKAPGKGLEWVADVNPNSGGSIYNQEFKGRFTLSVDRSKNTLYLQMNSLRAEDTAVYYCARNLGPSFYFDYWGQGTLVTVSSASTKGPSVFPLAPSSKSTSGGTAALGCLVADYFPEPVTVSWNSGALTSGVHTFPAVLQSSGLYSLASVVTVPSSSLGTQTYICNVNHKPSNTKVDKKVEPKSCDKTHTCPPCPAPELLGGPSVFLFPPKPKDTLMISRTPEVTCVVVDVSHEDPEVKFNWYVDGVEVHNAKTKPREEQYQSTYRVVSVLTVLHQDWLNGKEYKCKVSNKALPAPIEKTISKAKGQPREPQVYTLPPSREEMTDNQVSLTCLVKGFYPSDIAVEWESNGQPENNYKTTPPVLMSDGSFFLASKLTVDKSRWQQGNVFSCSVMHEALHNHYTQKSLSLSPG
light 1: RIQMTQSPSSLSASVGDRVTITCKASQDVSIGVAWYQDKPGKAPKLLIYSASYRYTGVPSRFSGSGSGTDFTLTISSLQPEDFATYYCQQYYIYPYTFGQGTKVEIKRTVAAPSVFIFPPSDEQLKSGTARVVCLLNNFYPREAKVQWKVDNALQSGNSQESVTEQDSKDSTYSLISTLTLSKADYEKHKVYACEVTHQGLSSPVTKSFNRGEC
heavy 2: QVQLVQSGAEVKKPGSSVKVSCKASGYTFTTYYLHWVRYAPGQGLEWMGWIYPGNVHAQYNEKFKGRVTITADKSTSTAYMELSSLRSEDTAVYYCARSWEGFPYWGRGTTVTVSSASTKGPSVFPLAPSSKSTSGGTAALGCLVKDYFPEPVTVSWNSGALTSGVHTFPAVLQSSGLYSLSSVVTVPSSSLGTQTYICNVNHKPSNTKVDEKVEPKSCDKTHTCPPCPAPELLGGPSVFLFPPKPKDTLMISRTPEVTCVVVDVSHEDPEVKFNWYVDGVEVHNAKTKPREEQYQSTYRVVSVLTVLHQDWLNGKEYKCKVSNKALPAPIEKTISKAKGQPRRPRVYTLPPSREEMTKNQVSLVCLVKGFYPSDIAVEWESNGQPENNYKTTPPVLDSDGSFFLYSVLTVDKSRWQQGNVFSCSVMHEALHNHYTQKSLSLSPG
light 2: DIQMTQSPSSLSASVGDRVTITCKASQNVGINVAWYQRKPGDAPKSLISSASYRYSGVPSRFSGSGSGTDFTLTISSLQPEDFATYFCQQYDTYPFTFGQGTKVEIKRTVAAPSVFIFPPSDKQLKSGTASVVCLLNNFYPREAKVQWKVDNALQSGNSQESVTEQDSKDSTYSLSSTLTLSKADYEKHKVYACEVTHQGLSSPVTKSFNRGEC
notes: Human IgG1; also called Pertuzumab × BHA10 14.3.1.1

binding result (hLTβR-Fc-biotin): no binding | binding result (hHGFR(cMet)-Fc): no binding
B6: Pertuzumab × Matuzumab IgG BsAb, CH1/Cκ Wild-Type (AB / H4DR variable domain designs, 7.8.60 CH3, N297Q) (bispecific antibody)
heavy 1: B5 heavy 1 with A149K, A185S
light 1: B5 light 1 with R131S, I176S
heavy 2: B1 heavy 2
light 2: B1 light 2
notes: Human IgG1; also called Pertuzumab × Matuzumab Wild-Type

binding result (hLTβR-Fc-biotin): no binding | binding result (hHGFR(cMet)-Fc): no binding
B7: Pertuzumab × Matuzumab IgG BsAb, CH1/Cκ design 14.3.1.1 (bispecific antibody)
heavy 1: B5 heavy 1
light 1: B5 light 1
heavy 2: B1 heavy 2 with K217E
light 2: B1 light 2 with E122K
notes: Human IgG1; also called Pertuzumab × Matuzumab 14.3.1.1

binding result (hLTβR-Fc-biotin): no binding | binding result (hHGFR(cMet)-Fc): no binding
B8: Pertuzumab × Matuzumab IgG BsAb, CH1/Cκ design 14.1.2 (bispecific antibody)
heavy 1: B5 heavy 1 with A185S, K215E
light 1: B5 light 1 with E123K, I176S
heavy 2: B1 heavy 2
light 2: B1 light 2
notes: Human IgG1; also called Pertuzumab × Matuzumab 14.1.2

binding result (hLTβR-Fc-biotin): no binding | binding result (hHGFR(cMet)-Fc): no binding
B9: Pertuzumab × Matuzumab IgG BsAb, CH1/Cκ design 14.3.1.2 (bispecific antibody)
heavy 1: B5 heavy 1 with A185G
light 1: B5 light 1
heavy 2: B1 heavy 2 with K217E
light 2: B1 light 2 with E122K
notes: Human IgG1; also called Pertuzumab × Matuzumab 14.3.1.2

binding result (hEGFR-Fc-biotin): no binding | binding result (hHGFR(cMet)-Fc): no binding
B10: Pertuzumab × BHA10 IgG BsAb, CH1/Cκ design 14.3.1.2 (bispecific antibody)
heavy 1: B5 heavy 1 with A185G
light 1: B5 light 1
heavy 2: B5 heavy 2
light 2: B5 light 2
notes: Human IgG1; also called Pertuzumab × BHA10 14.3.1.2
